In paper PMC11272775, “Epigenetic memory is governed by an effector recruitment specificity toggle in Heterochromatin Protein 1” (Nature Communications, 2024):

Test system: Swi6-Y (Swi6-T278Y) (Schizosaccharomyces pombe)
Assay: EMSA
Details: 20 mM Hepes pH 7.5, 4 mM Tris, 80 mM KCl, 0.1% Igepal CA-630, 0.2 mM EDTA, 2 mM DTT, 10% glycerol, 10 nM mononucleosome, 30 °C 45 min, 6% acrylamide 0.5x TBE …

Work on H3K9me0 mononucleosome yielded a binding signal (fold weaker than H3K9me3) (H3K9me0 histone, unmodified H3 (H3K9me0)) of 2.3.
With H3K9me3 mononucleosome the K half (H3K9me3 histone, histone H3K9me3 (DNA unmodified)) was 39 nM.
